According to patent US10864251B2, “Peptides of syndecan-1 for inhibiting angiogenesis” (Wisconsin Alumni Research Foundation, priority 2006, dated 2020):
Like-named read-outs stand apart in the source and are kept apart here. Where no end group is shown, it is not given here.

Tests used:
[1] = tested on: human dermal microvascular endothelial cells (HMEC-1); assay type: cell-based
Method: FIGS. 6A-6H—Inhibition of B82L fibroblast and HMEC-1 cell attachment and spreading on VN by synstatin82-130. B82L fibroblasts, which rely on the αvβ5 integrin for attachment to VN, and human dermal microvascular endothelial cells, which rely on both the αvβ3 and αvβ5 integrins for attachment to VN, were plated in the absence of peptide (FIGS. 6A, 6E) or in the presence of 0.1 (FIGS. 6B, 6F), 0.3 (FIGS. 6C, 6G) or 1 μM (FIGS. 6D, 6H) synstatin82-130 for 2 hr and processed as described in FIG. 2.
FIGS. 10A-10D—Dependence of HMEC cell attachment and spreading on integrin activation by Sdc1 and its inhibition by SSTN. (FIG. 10A) HMECs were plated for 2 hr either on Sdc1-specific antibody B-B4 to engage Sdc1 or on VN (10 μg/ml coating concentration) to engage the αvβ3 and αvβ5 integrins. Blocking antibodies LM609 (10 μg/ml, specific for αvβ3) and P1F6 (10 μg/ml, specific for αvβ5), SSTN (0.5 μM) or recombinant mouse Sdc1 ectodomain (mS1ED, 5 μM) were added. The ligand mimetic antibody WOW1 was used to detect activated αvβ3 integrin on cells plated on B-B4. (FIG. 10B) HMECs were treated with siRNA oligo specific for human Sdc1 for 48 hr prior to plating on VN. Sdc1 expression was quantified by flow cytometry using human Sdc1-specific mAb B-B4 or a control mouse IgG. (FIG. 10C-10D) The percentage of cell attaching or attaching and spreading was quantified for HMECs, HAEC and MAECs plated on VN for 24 hr in the presence of mS1ED or SSTN, or after siRNA silencing of Sdc1 expression in the presence of mAb LM609 to block αvβ3 integrin, P1F6 to block αvβ5 integrin, or both antibodies.
FIG. 14—Activity of SSTN peptides. A diagram of SSTN82-130 used in our experiments is shown. The gray letters designate amino acids that are identical or highly conserved across species (mouse, human, rat, hamster). Shorter peptides have been tested using HMEC-1 endothelial cells for inhibition of […] mediated cell attachment and spreading in comparison to SSTN82-130.
Cell adhesion and spreading assays were performed with modification to the previous procedures (Lebakken and Rapraeger, 1996. Briefly, human plasma vitronectin or fibronectin at 10-30 μg/ml were applied to nitrocellulose-coated ten well slides (Erie Scientific) and incubated for 1-2 h at 37° C. Slides were blocked with 1.0% heat-denatured bovine serum albumin for a minimum of 30 min at 37° C. Cells were detached from the substratum using 5 mM EDTA in Tris-buffered saline and resuspended in HEPES-buffered culture medium containing 0.1% heat-denatured BSA. Cells were plated at a density of 15,000 cells per well and allowed to attach and spread for 2 h prior to fixation in 4% paraformaldehyde in CMF-PBS. For fluorescence microscopy, fixed cells were permeabilized in 0.2% Triton X-100, labeled with rhodamine-conjugated phalloidin and analyzed using fluorescence microscopy. For testing inhibition by recombinant mScd-1ED and synstatin82-130, cells were pre-incubated 10 min before plating in the presence of the inhibitor. […] LM609 was used as a specific block to αvβ3 and P1F6 was used as a specific blocker of αvβ5.
Finally, the inventors have examined HMEC-1 cells, which are immortalized human dermal microvascular endothelial cells. Microvascular endothelial cells are regarded as being the main source of endothelial cells that carry out angiogenesis in vivo. The HMEC-1 cells grown in serum-containing culture medium express Sdc1 (as noted earlier) and also express active αvβ3 and αvβ5 integrins. […]

B82L fibroblasts = conditions: B82L cells; McQuade et al., 2006; read-out: IC50, recognition of VN; cited from earlier work
[2] = tested on: syndecan-1 association with the αvβ3 and αvβ5 integrins; test: Co-immunoprecipitation of β3/β5 integrin with syndecan-1 from HMEC-1 cells; assay type: binding, human; conditions: HMEC-1, 30 μM GST-mS1ED or 1 μM SSTN
Text: FIGS. 8A-8D—SSTN disrupts association of syndecan-1 with the αvβ3 and αvβ5 integrins. (FIG. 8A) Diagram of mouse syndecan-4 (mS4), human syndecan-1 (hS1) and mouse syndecan-1 (mS1) and mS1 deletion mutants showing which proteoglycans are able to activate the αvβ3 and αvβ5 integrins. (FIG. 8B) Flow cytometry of human aortic endothelial cells (HAEC), human dermal microvascular endothelial cells (HMEC-1) or mouse aortic endothelial cells (MAEC) using human or mouse-specific antibodies for syndecan-1, αvβ3, and αvβ5. The β5 subunit is detected by Western blot in mouse cells and is compared to B82L fibroblasts known to express this integrin; (FIG. 8C) Human syndecan-1 is immunoprecipitated from HMEC-1 cells in the presence or absence of 30 μM GST, 30 μM GST-mS1ED (mouse syndecan-1 ectodomain), or 1 μM SSTN and detected on blots along with co-precipitating β3 or β5 integrin. (FIG. 8D) Human syndecan-1 is immunoprecipitated from MDA-MB-231 human mammary carcinoma cells expressing full-length mouse syndecan-1 (F1-mS1), a mouse mutant bearing deletion of amino acids 67-121 (mS1^Δ67-121), or vector alone (NEO) and blotted for the co-precipitation of the αvβ3 integrin by detection of the β3 subunit. […]

## SNTETAFTSVLPAGEKPEEGEPVLHVEAEPGFTARDKEKEVTTRPRETV [synstatin82-130]
[1]; 6 h
  IC50: ~100 nM

B1: S1ED: recombinant mouse Sdc1 ectodomain (amino acids 18-251), expressed in bacteria as GST fusion or 6×His-tagged protein (protein)
chain: QPALPQIVAVNVPPEDQDGSGDDSDNFSGSGTGALPDTLSRQTPSTWKDVWLLTATPTAPEPTSSNTETAFTSVLPAGEKPEEGEPVLHVEAEPGFTARDKEKEVTTRPRETVQLPITQRASTVRVTTAQAAVTSHPHGGMQPGLHETSAPTAPGQPDHQPPRVEGGGTSVIKEVVEDGTANQLPAGEGSGEQDFTFETSGENTAVAAVEPGLRNQPPVDEGATGASQSLLDRK
modifications: left off: a dimerising Fc or GST
notes: recombinant mouse Sdc1 ectodomain (amino acids 18-251), expressed in bacteria as GST fusion or 6×His-tagged protein
[1]; HMEC-1, αvβ3 and αvβ5 integrin-dependent, read-out: IC50, spreading on VN
  IC50: 3000 to 10000 nM
[1]; HMECs on vitronectin, 1-3 μM
  reduction of cell spreading: 80-90%
[1]; HMECs, 5.0 μM
  spreading on vitronectin: blocks spreading as effectively as the combined antibody treatment
B82L fibroblasts
  IC50: 3000 to 10000 nM
[2]
  co-precipitation of β3 and β5 integrin with human syndecan-1: displace the integrins
